Test results as given in PMC7849165 (The EMBO Journal, 2020).
No end group written: not given here.

Target: T1, N-terminal cytosolic domain of Sec62 (Sec62 domain; residues 18-145) (S. cerevisiae, UniProt P21825 18-145)
T1 sequence (looked up): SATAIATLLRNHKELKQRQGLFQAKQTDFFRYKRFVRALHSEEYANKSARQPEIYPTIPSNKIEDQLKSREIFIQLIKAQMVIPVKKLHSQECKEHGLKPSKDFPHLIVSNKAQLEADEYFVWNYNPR
Assay: pull-down

Binder: VYSEEDDEYSTDDDETESDDESDASDY (peptide, UniProt P14906 621-647, looked up, also: biotin label, position not given here) [Sec63-C1 peptide (residues 621-647 of Sec63), biotin-labeled]
- binding result: binds
